Experimental data published in paper PMC2631437 (Molecular microbiology, 2008).
Changes are numbered by the printed parent chain.

What was measured:
Assay in all cases: EMSA
[1] = molecular target: T1, MotA D43K (bacteriophage T4, UniProt P22915 1-211, D43K)
T1 sequence: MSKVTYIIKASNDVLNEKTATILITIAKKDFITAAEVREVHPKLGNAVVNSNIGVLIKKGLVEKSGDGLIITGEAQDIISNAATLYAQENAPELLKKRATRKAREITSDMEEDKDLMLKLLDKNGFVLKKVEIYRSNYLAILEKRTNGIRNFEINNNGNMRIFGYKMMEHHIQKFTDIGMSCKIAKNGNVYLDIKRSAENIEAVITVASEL

[2] = molecular target: T2, MotA S80R (bacteriophage T4, UniProt P22915 1-211, S80R)
T2 sequence: T1 sequence with K43D, S80R

[3] = molecular target: T3, MotA K28E (bacteriophage T4, UniProt P22915 1-211, K28E)
T3 sequence: T1 sequence with K28E, K43D

[4] = molecular target: T4, MotA Q76R (bacteriophage T4, UniProt P22915 1-211, Q76R)
T4 sequence: T1 sequence with K43D, Q76R

[5] = molecular target: T5, MotA K59E (bacteriophage T4, UniProt P22915 1-211, K59E)
T5 sequence: T1 sequence with K43D, K59E

[6] = molecular target: T6, MotA K3E (bacteriophage T4, UniProt P22915 1-211, K3E)
T6 sequence: T1 sequence with K3E, K43D

B1: 21 bp MotA box DNA (dsDNA)
DNA 1: GAATTATTTGCTTTAGATTAC
DNA 2: GTAATCTAAAGCAAATAATTC
**Q.** Which results are given for B1?
**A.** Kd [1]: ~500 nM; Kd [2]: ~600 nM; Kd [3]: ~500 nM; Kd [4]: ~600 nM; Kd [5]: ~500 nM; Kd [6]: ~500 nM
